Results published in patent publication US4829052A, “Serine protease inhibitors” (Monsanto Company, priority 1987, dated 1989).

Columns and labels:
[1] = target: T1, purified human elastase (HE) (Homo sapiens, UniProt P08246); assay: 125I-Fibronectin assay with purified human elastase; type: biochemical; conditions: enzyme concentration 4 nM, FIG. 3
T1 sequence (P08246 30-267): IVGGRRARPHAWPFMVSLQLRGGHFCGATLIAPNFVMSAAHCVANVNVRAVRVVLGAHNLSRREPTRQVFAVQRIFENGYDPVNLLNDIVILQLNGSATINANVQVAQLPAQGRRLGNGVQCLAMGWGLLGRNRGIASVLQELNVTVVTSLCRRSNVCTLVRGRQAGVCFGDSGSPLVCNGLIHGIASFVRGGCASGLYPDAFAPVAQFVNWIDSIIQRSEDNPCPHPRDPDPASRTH
Procedure: This assay is designed to model the degradation of connective tissue. […] Briefly, purified human plasma fibronectin (fn) is radiolabeled with ^125 I using Enzymobeads and conventional procedures. The desalted is diluted with fn to yield ca. cpm/ug. This material is further diluted with pH 9.6 barbital buffer and 200 ul (30 ug fn, 50000 cpm) is pipetted into the wells of a flat bottomed 96 well microtiter plate. The plates are dried for about 24 hours at 37° C. and unbound fn is removed with 2 washes of phosphate buffered saline (PBS). The plates are stored at 4° C. and are stable for at least 2 weeks.
For an assay each coated well is filled with a total volume of 200 μl. All measurements are carried out at optimal pH and buffer conditions. After addition of proteolytic activity with or without inhibitor the plate is incubated at 37° C. for 3 hours. The well contents are centrifuged and a 100 μl aliquot is counted for 1251gamma radiation. Some assays employed elastase activity derived from freshly prepared neutrophils (PMN). ln this case an activating agent to stimulate the PMN is present in the well and the PMN is added last. A standard curve showing the linearity of the response to the amount of purified human elastase (HE) added is obtained concurrently with each assay.

Human Sputum Elastase = target: T2, Human Sputum Elastase (Homo sapiens, UniProt P08246); assay: Elastase assay (spectrophotometric, p-nitroanilide substrate); type: biochemical
T2 construct: Human Sputum Elastase, product No. SE-563 EPC, Inc., Pacific, Mo; USA, Lot 85701; purchased EPC, Inc., Pacific, Mo; USA SE-563; host or cells: human sputum
T2 sequence (P08246 30-267): T1 sequence (P08246 30-267)
Protocol: (§1) The inhibitory activity of the polypeptides of the present invention can be easily assayed using in vitro assays. In these types of spectrophotometric assays the activity of the serine protease is measured toward an appropriate p-nitroanilide substrate in the presence and absence of the peptide inhibitor. The enzyme catalyzed hydrolysis of the peptide p-nitroanilide substrate produces p-nitroanaline which results in an increase in absorbance which is monitored in the range of 405 to 410 nm. The rate of increase in absorbance is a measure of the enzymatic activity and the decrease in this rate relative to a suitable control is used to ascertain inhibition. The general assay procedure and details of the particular assays employed in the examples are provided in the Appendix following the examples. It is also possible to test the polypeptides in a functionally oriented assay that emulates in vivo conditions. Such an inhibition assay for elastase is also described in the Appendix.
(§2) Generalized Protocol Spectrophotometric Assays:
(§3) (1) Pipette 100 μl of enzyme solution into a disposable polystyrene cuvette (1 cm optical path length).
(§4) (2) Add (1900-X) μl of bufferto the cuvette, where X is the volume of test solution in microliters that is added in the next step.
(§5) Add X μl of test solution to the cuvette, where X ranges from 0 μl for the control to a maximum of about 500 μl. Incubate the solution for a period of 1 to 5 minutes at ambient temperature.
(§6) (4) Add 100 μl of substrate solution to the cuvette. Mix the contents by covering the cuvette with a piece of paraffin film and repeatedly inverting for a period of 5 to 15 seconds.
(§7) (5) Record the change in absorbance for about 5 minutes at either 405 or 410 nm, depending on the assay, with a spectrophotometer equipped with a suitable recording device.
(§8) The percent inhibition is calculated from the formula [formula] where (ΔA/min) is the initial rate of absorbance change.
(§9) (7) For more accurate quantitative determinations temperature control of the cuvette holders and the reagent solutions can be instituted.
(§10) (8) The test solution can be crude oxidized peptide prepared as described above, fractions from a chromatographic separation or purified polypeptides.
(A) Buffer Solution - Tris-NaCl buffer consisting of 0.1M Tris-HCl pH 7.5 at 25° C. containing 0.5M NaCl and 0.01% (w/v) NaNs.
(B) Substrate Solution - Dissolve 45.5 mg of N-succinyl-L-alanyl-L-alanyl-L-alanine p-nitroanilide in 1 ml of 1-methyl-2-pyrrolidinone. Add 32 ml of Tris-NaCl buffer.
(C) Enzyme Solution - Human Sputum Elastase, product No. SE-563 EPC, Inc., Pacific, Mo. USA, Lot 85701. Dissolve 1 mg in 1 ml of Tris-NaCl buffer. Store on ice or at 4° C.
(§11) (D) Test Solution - See general protocol, number 8.
(§12) Procedure: Use the above solutions in the general protocol described above.
(1) Buffer Solution - Tris-NaCl buffer -see Method 1.
(2) Substrate Solution - Dissolve 50 mg of 3-carbomethoxypropionyl-L-alanyl-L-alanyl-L-[…]-L-valine p-nitroanilidein 1 ml of 1-methyl-2-pyrrolidinone. Add 32 ml of Tris-NaCl buffer.
(3) Enzyme Solution - Human sputum elastase, product No. SE-563, EPC, inc. Pacific, Mo. USA, Lot 85071. Prepare a sample at a concentration of 0.01 mg per ml of Tris-NaCl buffer. Store on ice.
(4) Test Solution - general protocol, number 8.
Procedure: Use the above solutions in the general protocol.
(1) Porcine pancreatic elastase may be substituted for human elastase when it is desired to test for an inhibitor of the former.
(2) The activity of an elastase preparation can be calculated as [formula]
(3) The Tris-NaCl buffer also can be pH 8.0 with 0.03% sodium azide. Results should be compared at a single pH.

bovine trypsin = target: T3, bovine trypsin (Bos taurus, UniProt P00760); assay: Trypsin assay (spectrophotometric, N-Benzoyl-L-arginine p-nitroanilide substrate); type: biochemical; conditions: inhibitor/protease ratio between about 10/1 and 50/1
T3 sequence (P00760 24-246): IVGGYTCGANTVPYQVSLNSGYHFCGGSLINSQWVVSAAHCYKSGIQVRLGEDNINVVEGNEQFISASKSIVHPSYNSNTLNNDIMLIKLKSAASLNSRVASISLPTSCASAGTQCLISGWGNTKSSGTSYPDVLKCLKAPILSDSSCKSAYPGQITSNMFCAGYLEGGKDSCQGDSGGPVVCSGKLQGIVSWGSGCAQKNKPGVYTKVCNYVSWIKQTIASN
Protocol: as §1, §2, §3, §4, §5, §6, §7, §8, §9, §10
(A) Buffer Solution - Triethanolamine buffer consisting of 200 mM triethanolamine, 20 mM CaCl2, pH 7.8
(B) Substrate solution - Dissolve 50 mg of N-Benzoyl-L-arginine p-nitroanilide in 50 ml of water. Sonicate for 5 to 10 minutes to completely dissolve the solid material.
(C) Enzyme solution - Dissolve 1 mg of bovine trypsin in 10 ml of 0.001N HCl stored on ice during the assay.
as §11, §12

[2] = target: T4, PMN-derived human elastase activity (Homo sapiens, UniProt P08246); assay: 125I-Fibronectin assay with stimulated PMN as source of elastase activity; type: cell-based; conditions: HLE equivalent of 4 nM, FIG. 3
T4 construct: Some assays employed elastase activity derived from freshly prepared neutrophils (PMN); endogenous in cells; host or cells: freshly prepared, stimulated neutrophils (PMN)
T4 sequence (P08246 30-267): T1 sequence (P08246 30-267)
Procedure: The data points represent the mean of several (n=3 to 9) replicates compared to the control that contained no inhibitor.
This assay is designed to model the degradation of connective tissue. The assay is carried out essentially as described by Campbell, et al. (J. Clin. Invest., 1982, 70:845-52). Briefly, purified human plasma fibronectin (fn) is radiolabeled with ^125 I using Enzymobeads and conventional procedures. The desalted is diluted with fn to yield ca. cpm/ug. This material is further diluted with pH 9.6 barbital buffer and 200 ul (30 ug fn, 50000 cpm) is pipetted into the wells of a flat bottomed 96 well microtiter plate. The plates are dried for about 24 hours at 37° C. and unbound fn is removed with 2 washes of phosphate buffered saline (PBS). The plates are stored at 4° C. and are stable for at least 2 weeks.
For an assay each coated well is filled with a total volume of 200 μl. All measurements are carried out at optimal pH and buffer conditions. After addition of proteolytic activity with or without inhibitor the plate is incubated at 37° C. for 3 hours. The well contents are centrifuged and a 100 μl aliquot is counted for 1251gamma radiation. Some assays employed elastase activity derived from freshly prepared neutrophils (PMN). ln this case an activating agent to stimulate the PMN is present in the well and the PMN is added last. […]

Substance: RVCPVILMKCKKDSDCLAECVCLEHGYCG (RVCPVILMKCKKDSDCLAECVCLEHGYCG) [Peptide 8]
- inhibition of 125I fibronectin degradation [1]: nearly the same inhibitory profile against purified human elastase (HE) and PMN-derived HE activity
- titration curve for elastase inhibition (Human Sputum Elastase; FIG. 2): essentially stochiometric inhibition
- Inhibitory Activity Elastase (Human Sputum Elastase; inhibitor/protease ratio between about 10/1 and 50/1): ++ (Represents greater than 50% inhibition)
- Inhibitory Activity Trypsin (bovine trypsin): - (Represents less than 10% inhibition)
- inhibition of 125I fibronectin degradation [2]: nearly the same inhibitory profile against purified human elastase (HE) and PMN-derived HE activity
